Laboratory results from article PMC3840220.

Target: bromelain-released influenza hemagglutinin (X31) (influenza virus X31)
Test: […]

Work on “bromelain-released influenza hemagglutinin (X31) (domain or fragment)” yielded a stoichiometry N of 3.
